Reference: patent US20020019040A1 (LEADD B V, published 2002)

Assays:
[1] = biological target: T1, fusion gene product of GAL4-DNA-binding domain and Apoptin (bait plasmid pGBT-VP3) (chicken anemia virus, UniProt P04386 1-147; Q99152 1-121); test: yeast two-hybrid control (HIS3 and LacZ reporters)
T1 construct: Yeast two-hybrid bait, expressed in yeast strain Y190; also called pGBT9-VP3; not shown: residues encoded by the EcoRI-NdeI linker

[2] = biological target: T1, fusion gene product of GAL4-DNA-binding …; test: yeast two-hybrid

Binder	binding result [1]	binding result [2]
GAL4-activation domain of the empty pACT vector (other, Negative control of the yeast two-hybrid system) ANFNQSGNIADSSLSFTFTNSSNGPNLITTQTNSQALSQPIASSNVHDNFMNNEITASKIDDGNNSKPLSPGWTDQTAYNAFGITTGMFNTTTMDDVYNYLFDDEDTPPNPKKE	no binding	
GAL4-activation domain fusion of the AAP-3 cDNA clone (pACT) (other, Yeast two-hybrid prey; also called Apoptin-associating clone AAP-3) HEGPMVGGGGVGGGLLENANPLIYQRSGERPVTAGEEDEQVPDSIDAREIFDLIRSINDPEHPLTLEELNVVEQVRVQVSDPESTVAVAFTPTIPHCSMATLIGLSIKVKLLRSLPQRFKMDVHITPGTHASEHAVNKQLADKERVAAALENTHLLEVVNQCLSARS		binds
